From CN117567617A (CHINA RESOURCES BIOMEDICAL CO LTD, dated 2024) come the findings set out here.

The target in test [1] is T1, CLDN18.2 (species not stated).
T1 construct: whole, on cells; the form of the antigen in the ka/kd/KD measurement is not described; also called CLDN18.2过表达细胞; claudin18.2
Put plainly: flow cytometry on CLDN18.2-overexpressing cells, MFI against antibody concentration.

The target of test [2] is T1, CLDN18.2 (species not stated at that …). Briefly: affinity measurement, method not described.

B1: 全人源抗CLDN18.2抗体2A2 (CLDN-BC-2A2-hH1) (antibody, V domains shown)
VH: QVQLQQWGPGLVKPSQTLSLTCTVSGGSISSVGYYWSWIRQHPGQGLEWVGYIYYSGGTYYNPSLKSRVTISLDTSKNQFSLKLTSVTAADTAVYYCASYGSVSPYYYYYGMDVWGQGTTVTVSS
VL: DIVMTQSPSSVSASVGDRVTITCRASQGISSWLAWYQQKPGKAPNLLISAASSLQSGVPSRFSGNGSGTDFTLTISSLQPEDFASYYCQQANSFPITFGQGTRLEIK
notes: The label 2A2-hIgG1 points to a human IgG1 full antibody; Made by transient expression in ExpiCHO; also called CLN-2A2-hH1; 2A2-hIgG1
B1 yielded an EC50 in test [1] of 0.62 µg/mL. For the same molecule, in test [2], the Kd turned out to be 5.24 nM, the koff was found to be 0.00172 s⁻¹ and the kon is 328000 M⁻¹ s⁻¹.

By EC50 is commonly meant the midpoint of the concentration-response curve. Broadly, the Kd is a measure of binding affinity in units of concentration. High values mean a looser complex, low ones a tighter complex. In general, koff refers to the rate constant with which the complex falls apart. High values mean a short-lived complex, low ones a long-lived complex. Usually kon stands for the rate constant with which the complex forms. Low values mean slower complex formation, high ones faster complex formation.
